Measurements reported in patent US20250353917A1 (SYSTIMMUNE, published 2025).
Read-outs that look alike come from different tables or passages of the source.

What was measured:
His-tagged human EGFR [1] = target: T1, His-tagged human EGFR (human, UniProt P00533 25-645, limits assumed); test: BLI (Octet), scFv-His coupled to AR2G sensors, His-tagged human EGFR in solution, 1:1 global fit
T1 construct: also called huEGFR
Procedure: (§1) Fc-containing protein was captured to anti-human Fc (AHC) sensor tips by loading for 180 seconds at 10 μg/ml. Alternatively, His-tagged proteins were covalently coupled at 10 ug/ml to AR2G tips using manufacturer protocol. After a 60-second baseline step, a 180- to 300-second association phase with serial dilutions (0-200 nM; 1:2.5 dilution factor) or a single 100 nM concentration of purified human EGFR in assay buffer (phosphate-buffered saline containing 0.1% BSA, 0.05% Tween20) was performed, followed by a 300- to 600—second dissociation phase in assay buffer. Regeneration was achieved using 10 mM glycine, pH 1.5. Binding curves were globally fit to a 1:1 model to extract the dissociation constants, KD. Binding kinetics for each protein were assessed in duplicate, with tabulated values reported as average±standard deviation.

His-tagged human EGFR [2] = target: T1, His-tagged human EGFR; test: as above; remark: listed apart in the source
Procedure: as §1

B1: SI-79R2 (scFv)
scFv: EIVMTQSPSTLSASVGDRVIITCRASQSIGTNIHWYQQKPGKAPKLLIYYASESISGIPSRFSGSGSGAEFTLTISSLQPDDFATYYCQQNNNWPTTFGQGTKLTVLGGGGSGGGGSGGGGSGGGGSEVQLVESGGGLVQPGGSLRLSCTVSGFSLTNYGVHWVRQAPGKGLEWVGVIWSGGNTDYNTPFTSRFTISRDTSKNTVYLQMNSLRAEDTAVYYCARALTYYDYEFAYWGQGTLVTVSSGSHHHHHH
notes: the entry holds the whole construct; also called H1 scFv-6His; humanized scFv
Kd (His-tagged human EGFR [1]): 12 nM
Kd (His-tagged human EGFR [2]): 12 nM
koff (His-tagged human EGFR [2]): 0.0107 s⁻¹
kon (His-tagged human EGFR [2]): 894000 M⁻¹ s⁻¹
